Consider one molecule from patent publication US20200165349A1 (Genmab, published 2020).

The target of assay [1] is T1, Wild boar CD137 (wild boar (Sus scrofa)).
T1 construct: Amino acids 1-23 are stated to be a predicted signal peptide; Expressed on HEK293T-17 cells; also called Sus scrofa CD137
T1 chain: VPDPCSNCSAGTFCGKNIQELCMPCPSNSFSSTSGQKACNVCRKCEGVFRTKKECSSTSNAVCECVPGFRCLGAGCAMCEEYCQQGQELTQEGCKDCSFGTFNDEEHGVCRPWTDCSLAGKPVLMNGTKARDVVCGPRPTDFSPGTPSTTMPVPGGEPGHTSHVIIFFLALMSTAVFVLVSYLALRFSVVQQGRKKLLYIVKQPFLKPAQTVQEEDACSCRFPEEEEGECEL
Put plainly: flow cytometry on transfected HEK293T-17 cells. For orientation: A flow cytometer gives signals particle by particle.

Assay [2] has as its target T2, Human CD137 shuffle 5 (amino acids 48-88 of African elephant CD137) (human with African elephant residues …, UniProt Q07011 24-255).
T2 construct: also called shuffle construct 5; shuffle 5/elephant
T2 chain: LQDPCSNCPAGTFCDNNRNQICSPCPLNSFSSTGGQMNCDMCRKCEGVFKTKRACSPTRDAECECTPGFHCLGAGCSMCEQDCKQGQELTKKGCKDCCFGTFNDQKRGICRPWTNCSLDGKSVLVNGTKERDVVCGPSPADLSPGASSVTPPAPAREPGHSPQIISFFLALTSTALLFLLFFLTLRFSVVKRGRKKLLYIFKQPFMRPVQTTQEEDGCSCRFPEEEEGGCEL
In words: flow cytometry on transfected HEK293T-17 cells.

Assay [3] concerns the target T3, African elephant CD137 (African elephant (Loxodonta africana)).
T3 construct: Amino acids 1-23 are stated to be a predicted signal peptide; Expressed on HEK293T-17 cells; also called Loxodonta africana CD137
T3 chain: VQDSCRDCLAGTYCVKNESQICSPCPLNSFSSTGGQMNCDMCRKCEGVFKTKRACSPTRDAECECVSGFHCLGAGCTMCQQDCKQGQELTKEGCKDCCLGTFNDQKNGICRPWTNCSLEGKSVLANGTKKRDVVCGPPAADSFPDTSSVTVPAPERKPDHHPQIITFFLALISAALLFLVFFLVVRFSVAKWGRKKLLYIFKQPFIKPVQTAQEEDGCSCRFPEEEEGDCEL
In words: flow cytometry on transfected HEK293T-17 cells.

The target of assay [4] is T4, Human CD137 (human, UniProt Q07011 24-255).
T4 construct: also called hCD137 wt; 4-1BB
In words: flow cytometry on transfected HEK293T-17 cells, 1 µg/mL antibody.

B1: CD137-009 (antibody, human IgG1, kappa, V domains shown)
VH: QSLEESGGRLVTPGTPLTLTCTVSGFSLNDYWMSWVRQAPGKGLEWIGYIDVGGSLYYASWAKGRFTISRTSTTVDLKMTSLTTEDTATYFCARGGLTYGFDLWGPGTLVTVSS
VL: DIVMTQTPASVSEPVGGTVTINCQASEDISSYLAWYQQKPGQRPKRLIYGASDLASGVPSRFSASGSGTEYALTISDLESADAATYYCHYYATISGLGVAFGGGTEVVVKR
notes: Rabbit variable regions on human IgG1; also called chimeric CD137 antibody; rabbit anti-CD137-009
As for B1, the binding result is “no binding (tested: 1 µg/mL)” in assay [1], “no binding (tested: 1 µg/mL)” in assay [2], “no binding (tested: 1 µg/mL)” in assay [3] and “binds” in assay [4].
